The values that follow are results of earlier work, collected in publication PMC5654615.

In one data set the target is TLR4 (Homo sapiens) (UniProt O00206). Put plainly: SPR. For orientation: SPR reads the build-up and loss of mass on a sensor chip optically.
In data set [1] the target is TLR4/MD2 complex (Homo sapiens) (UniProt O00206). Put plainly: SPR.
The target in another data set is MD2 (Homo sapiens) (UniProt Q9Y6Y9). Put plainly: SPR.
Data set [2] deals with TLR4/MD2 complex (Homo sapiens) (UniProt O00206).

Read-outs that look alike come from different tables or passages of the source.

UniProt Q9Y6Y9, sequence (Q9Y6Y9 19-160): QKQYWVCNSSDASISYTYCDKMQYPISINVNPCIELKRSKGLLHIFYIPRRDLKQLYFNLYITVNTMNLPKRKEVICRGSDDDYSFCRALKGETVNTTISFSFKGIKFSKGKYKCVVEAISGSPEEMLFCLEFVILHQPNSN

In general, Kd refers to a measure of binding affinity in units of concentration. Consider CIRP (from UniProt Q14011), for which the Kd with TLR4 (Homo sapiens) is 617 nM; in data set [1], 239 nM; in the data set with MD2 (Homo sapiens), 302 nM.
Turning to HMGB1 (from UniProt P09429), in data set [2], the Kd was 1500 nM.
